One molecule from publication PMC11348219 can be followed below.

The experiment deals with mutant-1a anti-A scFv. Description: non-reducing SDS-PAGE; elution fraction EfA1 of nickel affinity chromatography on a Coomassie-stained 15% SDS-PAGE gel, non-reducing.

“And” between values parts separate entries of the source, which are not always exact repeats. Equal entries are not always repeated.

B1: mutant-1a anti-A scFv (scFv, V domains shown)
VH: QVQLQQPGAELVKPGTSVKLSCKASGYNFTSYWINWVKLRPGQCLEWIGDIYPGSGITNYNEKFKSKATLTVDTSSSTAYMQLSSLASEDSALYYCAGQYGNLWFAYWGQGTLVTVSG
VL: DIQMTQTTSSLSASLGDRVTISCRASQDINNYLNWYQQKPDGTVKLLIHYTSRLHSGVPSRFSGSGSGTDYSLTISNLEQEDIATYFCQQGNTLPWTFGCGTKLEIK
The stoichiometry N is the number of molecules, sites or subunits per partner or assembly. B1: the stoichiometry N was 2 and 3.
